{"source": "paper PMC8096331", "about": "“Completion of the gut microbial epi-bile acid pathway” (Gut Microbes, 2021)", "molecules": {"B1": {"name": "Cp12β-HSDH (Clostridium paraputrificum) (protein)", "chain": "MKELNEKVAIITGAGQGIGKGIALHLGKRGVKVVCVGRRLDPIVQTVKEVEEAGGQGFAITCDVGNREDVKKVVKATVEKYGTVDVVVNNAQSLPGSAKVEDTTYEQMLTAWQSGTIGSLNMMQECFPYMKDQNEGRIINFASATGMFGYAGQLAYGCNKESIRGLTKIAAKEWAQYNIIVNCVLPGAESPAAKVWAEKFPEKYKEIMEAQPMKRFGDGEDDIGRVIAFLAGPDSKYYTGQCLLVDGGYSIAP", "notes": "full length, N-terminal His6 tag (pET-28a(+)), E. coli BL21-CodonPlus(DE3) RIPL, TALON purified"}}, "key": {"[1]": {"molecular_target": "Clostridium paraputrificum ATCC 25780 bile acid 12β-HSDH (WP_027099077.1) (Clostridium paraputrificum ATCC 25780)", "assay": "SEC; Superose 6 10/300 GL analytical column, 4°C, 50 mM Tris-Cl, 150 mM NaCl, pH 7.5; purified protein loaded at 10 mg/mL, 0.3 ml/min; native mass estimated against Bio-Rad gel filtration standards"}, "purified protein [2]": {"substrate": "NC(=O)C1=CN([C@@H]2O[C@H](COP(=O)(O)OP(=O)(O)OC[C@H]3O[C@@H](n4cnc5c(N)ncnc54)[C@H](OP(=O)(O)O)[C@@H]3O)[C@@H](O)[C@H]2O)C=CC1", "assay": "purified protein", "settings": "reductive direction, 80 µM 12-oxoLCA, 10 nM enzyme, sodium phosphate pH 7.0, varied: cofactor"}, "purified protein [3]": {"substrate": "NC(=O)c1ccc[n+]([C@@H]2O[C@H](COP(=O)(O)OP(=O)(O)OC[C@H]3O[C@@H](n4cnc5c(N)ncnc54)[C@H](OP(=O)(O)O)[C@@H]3O)[C@@H](O)[C@H]2O)c1", "assay": "purified protein", "assay_type": "biochemical, Clostridium paraputrificum", "settings": "oxidative direction; 100 µM epiDCA; 10 nM enzyme; sodium phosphate pH 7.5; pH 7.5; varied: cofactor"}, "purified protein [4]": {"substrate": "C[C@H](CCC(=O)O)[C@H]1CC[C@H]2[C@@H]3CC[C@@H]4C[C@H](O)CC[C@]4(C)[C@H]3C[C@@H](O)[C@]12C", "assay": "purified protein", "assay_type": "biochemical, Clostridium paraputrificum", "settings": "oxidative direction; 300 µM NADP+; 10 nM enzyme; sodium phosphate pH 7.5; pH 7.5"}, "purified protein [5]": {"substrate": "[H][C@]12CC[C@]3([H])[C@]([H])(CC(=O)[C@@]4(C)[C@@]3([H])CC[C@]4([H])[C@H](C)CCC(=O)O)[C@@]1(C)CC[C@@H](O)C2", "assay": "purified protein", "assay_type": "biochemical, Clostridium paraputrificum", "settings": "reductive direction; 150 µM NADPH; 10 nM enzyme; sodium phosphate pH 7.0; pH 7.0"}}, "data": [{"molecule": "Clostridium paraputrificum ATCC 25780 bile acid 12β-HSDH (WP_027099077.1) (enzyme)", "values": [{"measurement": "stoichiometry N", "setting": "[1]", "value": 2}]}, {"molecule": "B1", "values": [{"measurement": "Km", "setting": "purified protein [2]", "value": "29.16 ± 0.42", "unit": "µM"}, {"measurement": "Vmax", "setting": "purified protein [2]", "value": 61.8, "unit": "µmol/min/mg"}, {"measurement": "kcat", "setting": "purified protein [2]", "value": 28.1, "unit": "s⁻¹"}, {"measurement": "kcat/Km", "setting": "purified protein [2]", "value": 970000, "unit": "M⁻¹ s⁻¹"}, {"measurement": "Km", "setting": "purified protein [3]", "value": "36.84 ± 0.55", "unit": "µM"}, {"measurement": "Vmax", "setting": "purified protein [3]", "value": 97.9, "unit": "µmol/min/mg"}, {"measurement": "kcat", "setting": "purified protein [3]", "value": "44.6 ± 3.77", "unit": "s⁻¹"}, {"measurement": "kcat/Km", "setting": "purified protein [3]", "value": "1.21e+06 ± 120000", "unit": "M⁻¹ s⁻¹"}, {"measurement": "Km", "setting": "purified protein [4]", "value": "44.43 ± 1.13", "unit": "µM"}, {"measurement": "Vmax", "setting": "purified protein [4]", "value": 130, "unit": "µmol/min/mg"}, {"measurement": "kcat", "setting": "purified protein [4]", "value": "59.3 ± 5.47", "unit": "s⁻¹"}, {"measurement": "kcat/Km", "setting": "purified protein [4]", "value": "1.34e+06 ± 150000", "unit": "M⁻¹ s⁻¹"}, {"measurement": "Km", "setting": "purified protein [5]", "value": "18.76 ± 0.40", "unit": "µM"}, {"measurement": "Vmax", "setting": "purified protein [5]", "value": 58.4, "unit": "µmol/min/mg"}, {"measurement": "kcat", "setting": "purified protein [5]", "value": "26.6 ± 1.62", "unit": "s⁻¹"}, {"measurement": "kcat/Km", "setting": "purified protein [5]", "value": "1.42e+06 ± 110000", "unit": "M⁻¹ s⁻¹"}]}]}
